Results as given in publication PMC10958042.

B1: ATGL (PNPLA2, patatin-like phospholipase domain-containing protein 2), human, full length / CGI-58 (ABHD5, 1-acylglycerol-3-phosphate O-acyltransferase ABHD5), human (parent)
chain 1: MFPREKTWNISFAGCGFLGVYYVGVASCLREHAPFLVANATHIYGASAGALTATALVTGVCLGEAGAKFIEVSKEARKRFLGPLHPSFNLVKIIRSFLLKVLPADSHEHASGRLGISLTRVSDGENVIISHFNSKDELIQANVCSGFIPVYCGLIPPSLQGVRYVDGGISDNLPLYELKNTITVSPFSGESDICPQDSSTNIHELRVTNTSIQFNLRNLYRLSKALFPPEPLVLREMCKQGYRDGLRFLQRNGLLNRPNPLLALPPARPHGPEDKDQAVESAQAEDYSQLPGEDHILEHLPARLNEALLEACVEPTDLLTTLSNMLPVRLATAMMVPYTLPLESALSFTIRLLEWLPDVPEDIRWMKEQTGSICQYLVMRAKRKLGRHLPSRLPEQVELRRVQSLPSVPLSCAAYREALPGWMRNNLSLGDALAKWEECQRQLLLGLFCTNVAFPPEALRMRAPADPAPAPADPASPQHQLAGPAPLLSTPAPEARPVIGALGL
chain 2: MAAEEEEVDSADTGERSGWLTGWLPTWCPTSISHLKEAEEKMLKCVPCTYKKEPVRISNGNKIWTLKFSHNISNKTPLVLLHGFGGGLGLWALNFGDLCTNRPVYAFDLLGFGRSSRPRFDSDAEEVENQFVESIEEWRCALGLDKMILLGHNLGGFLAAAYSLKYPSRVNHLILVEPWGFPERPDLADQDRPIPVWIRALGAALTPFNPLAGLRIAGPFGLSLVQRLRPDFKRKYSSMFEDDTVTEYIYHCNVQTPSGETAFKNMTIPYGWAKRPMLQRIGKMHPDIPVSVIFGARSCIDGNSGTSIQSLRPHSYVKTIAILGAGHYVYADQPEEFNQKVKEICDTVD

Variants of: B1
Assay: LUMIER: Protein A-ATGL variant and firefly luciferase-partner co-expressed in HEK293T, lysates immunoprecipitated on IgG-coated plates, co-precipitated partner measured as luciferase luminescence
Settings: with CGI-58 (ABHD5, 1-acylglycerol-3-phosphate O-acyltransferase ABHD5), transient co-transfection, IgG-coated LUMITRAC plates, 2 h at 4 °C, three PBS washes, Bright-Glo luciferase reagent, triplicates per assay, two …, scale: log2 fold change of co-immunoprecipitated luminescence relative to wild-type ATGL within each experiment

| Variant | screen value (parent: 0.32, not graded) | screen value (parent: 0.45, not graded) |
| --- | --- | --- |
| chain 1 MFPREKTWNISFAGCGFLGVYYVGVASCLREHAPFLVANATHIYGASAGALTATALVTGVCLGEAGAKFIEVSKEARKRFLGPLHPSFNLVKIIRSFLLKVLPADSHEHASGRLGISLTRVSDGENVIISHFNSKDELIQANVCSGFIPVYCGLIPPSLQGVRYVDGGISDNLPLYELKNTITVSPFSEESDICPQDSSTNIHELRVTNTSIQFNLRNLYRLSKALFPPEPLVLREMCKQGYRDGLRFLQRNGLLNRPNPLLALPPARPHGPEDKDQAVESAQAEDYSQLPGEDHILEHLPARLNEALLEACVEPTDLLTTLSNMLPVRLATAMMVPYTLPLESALSFTIRLLEWLPDVPEDIRWMKEQTGSICQYLVMRAKRKLGRHLPSRLPEQVELRRVQSLPSVPLSCAAYREALPGWMRNNLSLGDALAKWEECQRQLLLGLFCTNVAFPPEALRMRAPADPAPAPADPASPQHQLAGPAPLLSTPAPEARPVIGALGL [chain 1 G189E] | -1.39 | -1.13 |
| chain 1 MFPREKTWNISFAGCGFLGVYYVGVASCLREHAPFLVANATHIYGASAGALTATALVTGVCLGEAGAKFIEVSKEARKRFLGPLHPSFNLVKIIRSFLLKVLPADSHEEASGRLGISLTRVSDGENVIISHFNSKDELIQANVCSGFIPVYCGLIPPSLQGVRYVDGGISDNLPLYELKNTITVSPFSGESDICPQDSSTNIHELRVTNTSIQFNLRNLYRLSKALFPPEPLVLREMCKQGYRDGLRFLQRNGLLNRPNPLLALPPARPHGPEDKDQAVESAQAEDYSQLPGEDHILEHLPARLNEALLEACVEPTDLLTTLSNMLPVRLATAMMVPYTLPLESALSFTIRLLEWLPDVPEDIRWMKEQTGSICQYLVMRAKRKLGRHLPSRLPEQVELRRVQSLPSVPLSCAAYREALPGWMRNNLSLGDALAKWEECQRQLLLGLFCTNVAFPPEALRMRAPADPAPAPADPASPQHQLAGPAPLLSTPAPEARPVIGALGL [chain 1 H109E] | 0.0522 | -0.021 |
| chain 1 MFPREKTWNISFAGCGFLGVYYVGVASCLREHAPFLVANATHIYGASAGALTATALVTGVCLGEAGAKFAEVSKEARKRFLGPLHPSFNLVKIIRSFLLKVLPADSHEHASGRLGISLTRVSDGENVIISHFNSKDELIQANVCSGFIPVYCGLIPPSLQGVRYVDGGISDNLPLYELKNTITVSPFSGESDICPQDSSTNIHELRVTNTSIQFNLRNLYRLSKALFPPEPLVLREMCKQGYRDGLRFLQRNGLLNRPNPLLALPPARPHGPEDKDQAVESAQAEDYSQLPGEDHILEHLPARLNEALLEACVEPTDLLTTLSNMLPVRLATAMMVPYTLPLESALSFTIRLLEWLPDVPEDIRWMKEQTGSICQYLVMRAKRKLGRHLPSRLPEQVELRRVQSLPSVPLSCAAYREALPGWMRNNLSLGDALAKWEECQRQLLLGLFCTNVAFPPEALRMRAPADPAPAPADPASPQHQLAGPAPLLSTPAPEARPVIGALGL [chain 1 I70A] | -0.496 | -0.552 |
